Values belong to the binder of their own block, whether it stands above or below them.
Biological target: human CD3 epsilon (human, UniProt P07766 23-207)
Assay: cell-based or functional assay

Chain of human CD3 epsilon (P07766 23-207): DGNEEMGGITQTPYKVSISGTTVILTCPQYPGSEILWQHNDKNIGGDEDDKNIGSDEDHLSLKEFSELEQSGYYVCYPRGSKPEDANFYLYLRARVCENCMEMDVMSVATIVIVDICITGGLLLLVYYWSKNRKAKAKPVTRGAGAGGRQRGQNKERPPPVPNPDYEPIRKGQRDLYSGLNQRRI

- Biological Activity (rel %), T-cell activation assay: 6 rel %
B1: epcoritamab CIEX-HPLC pre-acidic 1 fraction (bispecific antibody, human IgG1, kappa, lambda)
heavy 1: not shown
light 1: not shown
heavy 2: EVQLVESGGGLVQPDRSLRLSCAASGFTFHDYAMHWVRQAPGKGLEWVSTISWNSGTIGYADSVKGRFTISRDNAKNSLYLQMNSLRAEDTALYYCAKDIQYGNYYYGMDVWGQGTTVTVSSASTKGPSVFPLAPSSKSTSGGTAALGCLVKDYFPEPVTVSWNSGALTSGVHTFPAVLQSSGLYSLSSVVTVPSSSLGTQTYICNVNHKPSNTKVDKRVEPKSCDKTHTCPPCPAPEFEGGPSVFLFPPKPKDTLMISRTPEVTCVVVAVSHEDPEVKFNWYVDGVEVHNAKTKPREEQYNSTYRVVSVLTVLHQDWLNGKEYKCKVSNKALPAPIEKTISKAKGQPREPQVYTLPPSREEMTKNQVSLTCLVKGFYPSDIAVEWESNGQPENNYKTTPPVLDSDGSFFLYSRLTVDKSRWQQGNVFSCSVMHEALHNHYTQKSLSLSPG
light 2: not shown
modifications: N103 deamidated (49.9 rel %); N106 deamidated (15.1 rel %); residual signal peptide SEA before N-terminal E1 (42.9 rel %); trace levels of a 3005a HC fragment around N103/N106

- Biological Activity (rel %), T-cell activation assay: 28 rel %
B2: epcoritamab CIEX-HPLC acidic 2b fraction (bispecific antibody, human IgG1, kappa, lambda)
heavy 1: not shown
light 1: not shown
heavy 2: B1 heavy 2
light 2: not shown
modifications: N106 deamidated (61.4 rel %); N103 deamidated (5.8 rel %); non-consensus glycosylation G2F (3.4 rel %) and A1F at N106; residual signal peptide SEA before N-terminal E1 (12.1 rel %)

- Biological Activity (rel %), T-cell activation assay: 9 rel %
B3: epcoritamab CIEX-HPLC acidic 1 fraction (bispecific antibody, human IgG1, kappa, lambda)
heavy 1: not shown
light 1: not shown
heavy 2: B1 heavy 2
light 2: not shown
modifications: N103 deamidated (85.3 rel %); residual signal peptide SEA before N-terminal E1 (13.0 rel %)

- Biological Activity (rel %), T-cell activation assay: 25 rel %
B4: epcoritamab CIEX-HPLC acidic 2a fraction (bispecific antibody, human IgG1, kappa, lambda)
heavy 1: not shown
light 1: not shown
heavy 2: B1 heavy 2
light 2: not shown
modifications: N103 deamidated (29.6 rel %); N106 deamidated (22.6 rel %); non-consensus glycosylation A1F at N106 (15.0 rel %); residual signal peptide SEA before N-terminal E1 (26.9 rel %)

- Biological Activity (rel %), T-cell activation assay: 90 rel %
B5: epcoritamab CIEX-HPLC acidic 3 fraction (bispecific antibody, human IgG1, kappa, lambda)
heavy 1: not shown
light 1: not shown
heavy 2: B1 heavy 2
light 2: not shown
modifications: N106 deamidated (76.0 rel %); trace levels of N103 deamidation
